Data from US20160046944, “APTAMER TO IL-17 AND USE THEREOF” (THE UNIVERSITY OF TOKYO, published 2016).

T1: IL-17 (IL-17A) (Homo sapiens, UniProt Q16552 Q16552:24-155)
T1 sequence: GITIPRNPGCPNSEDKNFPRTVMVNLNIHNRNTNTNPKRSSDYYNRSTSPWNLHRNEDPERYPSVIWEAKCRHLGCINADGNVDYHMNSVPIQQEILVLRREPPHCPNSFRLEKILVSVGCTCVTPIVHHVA

B1: aptamer No. 37 (mixed)
mixed: GGGUAGCCGGAGGAGTCAGTAAUCGGTACCC
modifications: g(M)g(M)g(M)u(M)Agc(M)c(M)Gg(M)Agg(M)a(M)gTc(F)agTaAu(M)c(M)g(M)g(M)Ta(M)c(M)c(M)c(M) (one (M) misprinted as (NI))
B2: aptamer No. 38 (mixed)
mixed: GGGUAGCCGGAGGAGTCAGTAAUCGGTACCC
modifications: g(M)g(M)g(M)u(M)Agc(M)c(M)Gg(M)Agg(M)a(M)gTc(F)agTa(M)au(M)c(M)g(M)g(M)Ta(M)c(M)c(M)c(M)
B3: aptamer No. 39 (mixed)
mixed: GGGUAGCCGGAGGAGTCAGTAAUCGGTACCC
modifications: g(M)g(M)g(M)u(M)Agc(M)c(M)Gg(M)Agg(M)a(M)gTc(F)AgTaa(M)u(M)c(M)g(M)g(M)Ta(M)c(M)c(M)c(M)
B4: aptamer No. 40 (mixed)
mixed: GGGUAGCCGGAGGAGTCAGTAAUCGGTACCC
modifications: g(M)g(M)g(M)u(M)Agc(M)c(M)Gg(M)Agg(M)a(M)gTc(F)AgTa(M)au(M)c(M)g(M)g(M)Ta(M)c(M)c(M)c(M)
B5: aptamer No. 41 (mixed)
mixed: GGGUAGCCGGAGGAGTCAGTAAUCGGTACCC
modifications: g(M)g(M)g(M)u(M)Agc(M)c(M)Gg(M)agg(M)a(M)gTc(F)agTaau(M)c(M)g(M)g(M)Ta(M)c(M)c(M)c(M)
B6: aptamer No. 42 (mixed)
mixed: GGGUAGCCGGAGGAGTCAGTAAUCGGTACCC
modifications: g(M)g(M)g(M)u(M)Agc(M)c(M)Gg(M)agg(M)a(M)gTc(F)agTaAu(M)c(M)g(M)g(M)Ta(M)c(M)c(M)c(M)
B7: aptamer No. 43 (mixed)
mixed: GGGUAGCCGGAGGAGTCAGTAAUCGGTACCC
modifications: g(M)g(M)g(M)u(M)Agc(M)c(M)Gg(M)agg(M)a(M)gTc(F)agTa(M)au(M)c(M)g(M)g(M)Ta(M)c(M)c(M)c(M)
B8: aptamer No. 44 (mixed)
mixed: GGGUAGCCGGAGGAGTCAGTAAUCGGTACCC
modifications: g(M)g(M)g(M)u(M)Agc(M)c(M)Gg(M)agg(M)a(M)gTc(F)AgTa(M)au(M)c(M)g(M)g(M)Ta(M)c(M)c(M)c(M)
B9: aptamer No. 45 (mixed)
mixed: GGGUAGCCGGAGGAGTCAGTAAUCGGUACCC
modifications: g(M)g(M)g(M)u(M)Ag(S)c(M)c(M)Gg(M)agg(M)a(M)gTc(F)agTaau(M)c(M)g(M)g(M)u(F)a(M)CCC
B10: aptamer No. 46 (mixed)
mixed: GGGUAGCCGGAGGAGTCAGTAAUCGGUACCC
modifications: g(M)g(M)g(M)u(M)Ag(S)c(M)c(M)Gg(M)Agg(M)a(M)gTc(F)agTaau(M)c(M)g(M)g(M)u(F)a(M)CCC
B11: aptamer No. 28 (mixed)
mixed: GGGUAGCCGGAGGAGTCAGTAAUCGGTACCC
modifications: g(M)g(M)g(M)u(M)Agc(M)c(M)Gg(M)Agg(M)a(M)gTc(F)agTaau(M)c(M)g(M)g(M)Ta(M)c(M)c(M)c(M)
B12: aptamer No. 47 (mixed)
mixed: GGGUAGCCGGAGGAGTCAGTAAUCGGUACCC
modifications: g(M)g(M)g(M)u(M)Agc(M)c(M)Gg(M)a(F)gg(M)a(M)gTc(F)a(F)gTaau(M)c(M)g(M)g(M)u(F)a(M)CCC
B13: aptamer No. 49 (mixed)
mixed: GGGUAGCCGGAGGAGTCAGTAAUCGGUACCC
modifications: g(M)g(M)g(M)u(M)Agc(M)c(M)Gg(M)Agg(M)a(M)gTc(F)agTaau(M)c(M)g(M)g(M)u(F)a(M)CCC (one (M) misprinted as (PI))
B14: aptamer No. 29 (mixed)
mixed: GGGUAGCCGGAGGAGTCAGTAAUCGGTACCC
modifications: g(M)g(M)g(M)u(M)Agc(M)c(M)Gg(M)Agg(M)a(M)gTc(F)agTa(M)a(M)u(M)c(M)g(M)g(M)Ta(M)c(M)c(M)c(M)
B15: aptamer No. 30 (mixed)
mixed: GGGUAGCCGGAGGAGTCAGTAAUCGGTACCC
modifications: g(M)g(M)g(M)u(M)Agc(M)c(M)Gg(M)Agg(M)a(M)gTc(F)agTa(M)Au(M)c(M)g(M)g(M)Ta(M)c(M)c(M)c(M)
B16: aptamer No. 31 (mixed)
mixed: GGGUAGCCGGAGGAGTCAGTAAUCGGTACCC
modifications: g(M)g(M)g(M)u(M)Ag(S)c(M)c(M)Gg(M)Agg(M)a(M)gTc(F)agTaau(M)c(M)g(M)g(M)TAc(M)c(M)c(M)
B17: aptamer No. 35 (mixed)
mixed: GGGUAGCCGGAGGAGTCAGTAAUCGGTACCC
modifications: g(M)g(M)g(M)u(M)Agc(M)c(M)Gg(M)Agg(M)a(M)gTc(F)AgTa(M)Au(M)c(M)g(M)g(M)Ta(M)c(M)c(M)c(M)

Target: T1, IL-17 (IL-17A)
Assay: cell_activity; IL-6 release, NIH3T3
Conditions: chain copies: 2
Protocol: First, human IL-17 and the aptamer produced in Example 1-1 were pre-incubated at 37° C. for 30 min, and added to NIH3T3 cell (ATCC, CRL1658) together with mouse TNFα (2 ng/mL). Then, after incubation for 24 hr, the culture supernatant was collected, and the amount of IL-6 was measured by BD Cytometric Bead Array (BD Biosciences). The IL-17 inhibitory action of each aptamer was determined from the amount of IL-6. For comparison with the aptamer of the present invention, a conventionally-known aptamer (aptamer No. 50) against IL-17 was used.

Binder	IC50
B1	1.64 nM
B2	0.31 nM
B3	3.91 nM
B4	3.75 nM
B5	0.4 nM
B6	0.51 nM
B7	0.49 nM
B8	1.83 nM
B9	0.76 nM
B10	1.13 nM
B11	2.11 nM
B12	0.59 nM
GGGUAGCCGGAGGAGTCAGTAAUCGGUACCC (mixed, g(M)g(M)g(M)u(M)Agc(M)c(M)Gg(M)agg(M)a(M)gTc(F)agTaau(M)c(M)g(M)g(M)u(F)a(M)CCC) [aptamer No. 48]	0.3 nM
B13	0.65 nM
B14	2.53 nM
B15	1.49 nM
B16	0.3 nM
GGGUAGCCGGAGGAGTCAGTAAUCGGTACCC (mixed, g(M)g(M)g(M)u(M)Agc(M)c(M)gg(M)Agg(M)a(M)gTc(F)agTa(M)a(M)u(M)c(M)g(M)g(M)TACCC) [aptamer No. 32]	4.62 nM
GGGUAGCCGGAGGAGTCAGTAAUCGGTACCC (mixed, g(M)g(M)g(M)u(M)Agc(M)c(M)gg(M)Agg(M)a(M)gTc(F)agTa(M)Au(M)c(M)g(M)g(M)TACCC) [aptamer No. 33]	4.31 nM
B17	2.47 nM
